pKd: −log10 of the molar value.
Columns and labels:
[1] = target: catalytically inactive USP5 C335A (human) (UniProt P45974); experiment: FRET or BRET
[2] = target: ubiquitin-specific protease 5, wild type (human) (UniProt P45974); experiment: thermal shift assay
Chain of ubiquitin-specific protease 5, wild type (human) (P45974 whole entry): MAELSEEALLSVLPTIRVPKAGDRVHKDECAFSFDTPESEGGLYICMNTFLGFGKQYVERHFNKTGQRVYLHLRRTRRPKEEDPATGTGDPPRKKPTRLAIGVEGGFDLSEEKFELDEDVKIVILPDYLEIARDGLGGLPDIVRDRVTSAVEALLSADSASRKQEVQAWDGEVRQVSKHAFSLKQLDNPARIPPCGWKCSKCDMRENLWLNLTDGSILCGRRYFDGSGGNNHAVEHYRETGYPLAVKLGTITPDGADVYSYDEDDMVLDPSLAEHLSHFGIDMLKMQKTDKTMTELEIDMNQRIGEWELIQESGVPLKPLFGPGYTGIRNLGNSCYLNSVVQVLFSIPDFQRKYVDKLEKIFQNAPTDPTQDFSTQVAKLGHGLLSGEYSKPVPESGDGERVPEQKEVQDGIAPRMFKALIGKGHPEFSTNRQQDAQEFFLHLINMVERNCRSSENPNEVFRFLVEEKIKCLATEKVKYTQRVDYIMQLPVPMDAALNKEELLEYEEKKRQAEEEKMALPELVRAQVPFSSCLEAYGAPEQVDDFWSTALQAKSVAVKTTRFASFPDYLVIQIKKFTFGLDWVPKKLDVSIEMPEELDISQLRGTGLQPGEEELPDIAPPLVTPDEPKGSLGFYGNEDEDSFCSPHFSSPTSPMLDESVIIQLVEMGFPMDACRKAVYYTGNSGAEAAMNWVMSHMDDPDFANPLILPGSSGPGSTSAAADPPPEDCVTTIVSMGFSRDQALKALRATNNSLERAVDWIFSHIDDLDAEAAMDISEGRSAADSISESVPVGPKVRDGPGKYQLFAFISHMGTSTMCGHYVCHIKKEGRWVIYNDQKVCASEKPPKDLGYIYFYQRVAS

Chain of catalytically inactive USP5 C335A (human) (P45974 whole entry C335A): as the sequence (P45974 whole entry) above, with C335A counted along it

| pKd [1] | Tm of the covalent complex [2] | Substance |
| --- | --- | --- |
| 6.00 | – | Cy5-labelled SDE2UBL (from UniProt Q6IQ49 1-77) (domain or fragment) |
| – | 57.6 °C | ISG15-PA, ISG15 propargylamide activity-based probe (from UniProt P05161 1-157) |

Source: paper doi:10.1101/2025.05.23.655772
